Assay results reported in patent US20200040083A1.
“And” between values parts separate entries of the source, which are not always exact repeats. Equal entries are not always repeated.

Molecular target: IL-2Rβ (R&D Systems, Minneapolis, Minn.) (UniProt P14784)
Assay: Octet (BLI), AHC capture
Conditions: Fc fusion

Chain of IL-2Rβ (R&D Systems, Minneapolis, Minn.) (P14784 27-240): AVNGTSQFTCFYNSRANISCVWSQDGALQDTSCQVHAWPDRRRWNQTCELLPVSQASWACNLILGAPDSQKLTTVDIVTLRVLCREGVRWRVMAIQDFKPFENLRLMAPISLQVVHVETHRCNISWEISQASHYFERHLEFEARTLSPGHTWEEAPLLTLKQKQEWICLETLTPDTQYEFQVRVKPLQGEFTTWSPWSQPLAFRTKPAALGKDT

| Substance | Kd |
| --- | --- |
| XENP21478 (from UniProt P0DOX5 218-449) | 6.76 nM and 3 nM |
| XENP21479 (from UniProt P0DOX5 218-449; P40933 49-162) | 3.06 nM and 3 nM |
